# Biological target: CD47 (mouse (endogenous in AB1 cells)) (UniProt Q61735)
# Experiment: proximity ligation; fixed MM (AB1) cells on coverslips, resting (PBS) or treated overnight with 400 nM BoxA or 10 nM CXCL12; primary antibodies to CD47 together with anti-CXCR4, anti-RAGE or anti-TLR4; Duolink probes; confocal imaging, signal per cell quantified
# Chain of UniProt Q61735 (Q61735 19-303): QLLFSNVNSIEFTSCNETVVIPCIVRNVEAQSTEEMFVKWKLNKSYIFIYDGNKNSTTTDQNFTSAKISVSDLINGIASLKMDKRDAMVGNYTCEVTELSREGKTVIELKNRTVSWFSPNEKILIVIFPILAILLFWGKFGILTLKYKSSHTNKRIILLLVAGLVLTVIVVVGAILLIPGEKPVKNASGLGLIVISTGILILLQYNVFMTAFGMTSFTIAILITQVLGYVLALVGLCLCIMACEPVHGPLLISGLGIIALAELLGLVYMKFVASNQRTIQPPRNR
row,"PLA signal, fold lower than that of CD47 and CXCR4 (fold lower than CD47/CXCR4)",Substance
1,100,RAGE (from UniProt Q62151 23-402) (receptor)
2,100,TLR4 (from UniProt Q9QUK6 26-835) (receptor)

# Source: publication PMC8185548
